± gives the uncertainty stated by the source.
Assay: amyloid nucleation score (Sup35N fusion, yeast selection) (log enrichment); library NNK1; higher = more nucleation; inactive = no reads after selection
Method in brief: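 The nucleation score is the log enrichment of output over input reads, calculated with DiMSum and centred on the mode score of non-aggregating sequences. Sequences with under 100 input reads were excluded. Reads came from Illumina sequencing of plasmid inserts from psi-negative yeast expressing Sup35N fused to peptides of 20 random codons, induced 24 hours with 100 μM copper sulfate and grown 7 days at 30°C without adenine and uracil.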

| Substance | amyloid nucleation score |
| --- | --- |
| GIFDLLYWLRELSLRKA | 1.14 ± 0.39 |
| GIGFFRCCLYRMFRYTRLSH | 0.365 ± 0.23 |
| GIIFGMKVGWK | 0.385 ± 0.31 |
| GILKCAYKT | 0.664 ± 0.66 |
| GIPYSVDGYVLVDVSITTIA | inactive |
| GISNSMVRHYLCTTFIYKDA | 3.51 ± 0.066 |
| GIVHAPCDFHTSSFWW | -0.147 ± 0.84 |
| GIWVGHESVVIIVDMLYMLL | 5.493 ± 0.046 |
| GKCLIMKQRLALKSFFNFQC | inactive |
| GKEYYAIPMKNDGIARVNLR | 0.875 ± 0.28 |
| GKFVFWWVRSVYDQMAVPGM | -0.546 ± 1.1 |
| GKLSSLLMFCRNSLFVGFLG | -0.086 ± 0.35 |
| GKSTCFSMKQECLAEREEEG | 0.257 ± 0.81 |
| GKYKI | -0.476 ± 0.63 |
| GLAASHSTSCSSYMISCWSR | -0.055 ± 0.55 |
| GLCGVILCELISNVREGKSK | 4.97 ± 0.084 |
| GLCTTCF | 0.126 ± 0.64 |
| GLECD | 0.469 ± 0.43 |
| GLHREATSYLNRLFRINSG | -0.48 ± 0.56 |
| GLKLKIREYSAFLCR | -0.027 ± 0.36 |
| GLLFVKGTVDRQAWSGFEAH | -0.796 ± 1.2 |
| GLLNR | 0.435 ± 0.19 |

| Substance | amyloid nucleation score |
| --- | --- |
| GLLTMIPKDYNCRISYLVHT | 0.015 ± 0.64 |
| GLQKSVEGNYMTFLSFSLAM | 5.03 ± 0.052 |
| GLVFTLWSASRCFFLRKKLW | -0.083 ± 0.83 |
| GLVHEAHLDANKFFH | -0.139 ± 0.71 |
| GLVHYMLLDPLAVNLSGCND | -0.301 ± 0.3 |
| GLVNFTVVLTFV | 2.82 ± 0.3 |
| GLVSRIAGLIHEIDGRFWMQ | inactive |
| GLWIRFIAVTSSSVEIRANS | -0.776 ± 0.62 |
| GLYPKYNVGLNN | -0.376 ± 0.56 |
| GMARHEMRGGMHSTLLRLTA | 0.735 ± 0.91 |
| GMDTGNITAQSMAGLPRRAS | -0.299 ± 0.49 |
| GMDTYLMETLCSTVNLRCHA | -0.604 ± 1 |
| GMFNLLH | inactive |
| GMSGGWPIYKLGSS | 1.05 ± 0.25 |
| GMSSRMPQLNSWEPRGGDSG | -0.144 ± 0.83 |
| GMSVNVWMYSSLGVFCLIYV | -0.107 ± 0.2 |
| GMVLEWWIFMFGVPFSSDRA | -0.122 ± 0.74 |
| GNCGET | 0.311 ± 0.41 |
| GNCKGKRPSRGGRCSGQ | 1.2 ± 0.58 |
| GNDGENLMSWTIVWNFIVG | 4.33 ± 0.062 |
| GNDIEAIKHSGLLLSSWTMG | -0.253 ± 1.2 |
| GNFGWHSLSYRDNYICSWAL | 4.43 ± 0.068 |

| Substance | amyloid nucleation score |
| --- | --- |
| GNFLFCTVDRHLTGSCS | 0.589 ± 0.47 |
| GNGVLAVTVSFAGTSLSLRF | -0.047 ± 1.4 |
| GNLGI | -0.31 ± 0.59 |
| GNLLVMVGNMRSIDKC | 0.326 ± 0.3 |
| GNNFFIIVAVLTQKNSAVRV | 1.19 ± 0.22 |
| GNNGVEKPKNHISGELFGTN | -0.138 ± 0.35 |
| GNRSSS | inactive |
| GNTVQLGRAGRFHVYDLRGV | -0.357 ± 0.6 |
| GPCGTLSI | -0.541 ± 0.84 |
| GPIRDKSELAYMLPFEVMYT | 0.565 ± 0.67 |
| GPLFYNTM | 0.159 ± 1.2 |
| GPLKPFNASLVGTGAVLHGE | 0.034 ± 0.52 |
| GPLSKGIFDRFMDPHRYFKY | -0.024 ± 0.61 |
| GPPLWADNKVVLIR | -0.878 ± 0.94 |
| GQDDYLWRRSGLDHNHSSSS | -0.568 ± 0.37 |
| GQGALDYF | inactive |
| GQGALRVDCLVHRQVVSVVL | 0.176 ± 0.62 |
| GQKYHINVRERLNNLFGDCV | 0.537 ± 0.35 |
| GQSKLVLHFAILTVVAWPFD | 0.385 ± 0.51 |
| GRAWCFY | 0.15 ± 0.33 |
| GRFRLVMVFCAGNGNAGGER | 1.52 ± 0.52 |
| GRIVVTSQFMMIGRWGSPPP | 3.29 ± 0.1 |

| Substance | amyloid nucleation score |
| --- | --- |
| GRLCCRPVWYTISCKLWVNE | 1.04 ± 0.49 |
| GRLSYIIRSYSLIRV | -1.21 ± 0.5 |
| GRLVVIAYQMQSCDSTMD | -0.115 ± 0.42 |
| GRMEGTGNYMVYKDQEGVNG | inactive |
| GRMGVSSWAGSQRVLIGENL | 1.47 ± 0.3 |
| GRRTAI | -0.069 ± 0.66 |
| GRSFGQSGRISRAGNVGIIC | -0.266 ± 0.38 |
| GRTSCLKRGISKEASLTGS | 1.25 ± 0.53 |
| GRTYDDYGHVIYRSWLPSLH | -0.274 ± 1.4 |
| GRVLYKSCALNNFSIMQVLC | 4.61 ± 0.1 |
| GRYVSSWFWFRFMQVQANTN | 0.248 ± 0.31 |
| GSFFTKDSDTP | 0.373 ± 0.46 |
| GSGSYRGTRLECLCFW | 0.025 ± 1.1 |
| GSKTRAKLSLGCPKFLDAKG | 0.457 ± 0.73 |
| GSLFWEVMKVMADGMCDVSL | 0.59 ± 0.54 |
| GSNIVSEYERLGRIMSV | -0.509 ± 1.2 |
| GSWYHDRVSLCFFIFDCG | 4.82 ± 0.076 |
| GTATLSHTCKHTPLRDTRLV | -0.16 ± 0.32 |
| GTDPGY | -0.706 ± 0.6 |
| GTDVQEWLAYCCAIIYAF | 0.332 ± 0.72 |
